Series [1] concerns Nc1ccn([C@@H]2O[C@H](COP(=O)(O)OP(=O)(O)OP(=O)(O)O)[C@@H](O)[C@H]2O)c(=O)n1. Nature of the series: purified protein. The conditions noted are these: Mg2+ CTP binds prior to Neu5Ac.
Series [2] concerns CC(=O)N[C@H]1[C@H]([C@H](O)[C@H](O)CO)OC(O)(C(=O)O)C[C@@H]1O. Briefly: purified protein. The conditions noted are these: Mg2+ active site; binds after CTP.

The source of these data is article PMC12654856, “Exploring the Scope of Functionalized N-Acylneuraminic Acid β-Methyl Glycosides as Inhibitors of Neisseria meningitidis CMP-Sialic Acid Synthetase” (Molecules, 2025).

As a reminder, the Km is the substrate concentration at which the rate is half of its maximum. On to “NmB CMP-sialic acid synthetase (CSS) (Neisseria meningitidis MC58)”, for which the Km in series [1] turned out to be 22 µM; in series [2] it was 37 µM.
